In series [1] the test system is pERTKR-MCA (pyr-Glu-Arg-Thr-Lys-Arg-methylcoumarinamide). Description: enzyme assay, hydrolysis of fluorogenic substrate, least squares fit (EnzFitter).
For series [2], the system named is T1, Nona-L-arginine.
T1 sequence: RRRRRRRRR

A further series addresses T2, Hexa-D-arginine.
T2 chain: RRRRRR

Series [3] has as its target T3, Nona-L-arginine.
T3 chain: RRRRRRRRR

A further series deals with T4, Hexa-L-arginine.
T4 chain: RRRRRR

Series [4] concerns the target pERTKR-MCA (pyr-Glu-Arg-Thr-Lys-Arg-methylcoumarinamide). Description: enzyme assay, hydrolysis of fluorogenic substrate, least squares fit (EnzFitter). This is another data set of the same source.

Where two headings read alike, the source gives them in different places.

B1: proprotein convertase PACE4 (enzyme, UniProt P29122 150-969, looked up, species assumed)
Proprotein convertase subtilisin/kexin type 6: QVRSDPQALYFNDPIWSNMWYLHCGDKNSRCRSEMNVQAAWKRGYTGKNVVVTILDDGIERNHPDLAPNYDSYASYDVNGNDYDPSPRYDASNENKHGTRCAGEVAASANNSYCIVGIAYNAKIGGIRMLDGDVTDVVEAKSLGIRPNYIDIYSASWGPDDDGKTVDGPGRLAKQAFEYGIKKGRQGLGSIFVWASGNGGREGDYCSCDGYTNSIYTISVSSATENGYKPWYLEECASTLATTYSSGAFYERKIVTTDLRQRCTDGHTGTSVSAPMVAGIIALALEANSQLTWRDVQHLLVKTSRPAHLKASDWKVNGAGHKVSHFYGFGLVDAEALVVEAKKWTAVPSQHMCVAASDKRPRSIPLVQVLRTTALTSACAEHSDQRVVYLEHVVVRTSISHPRRGDLQIYLVSPSGTKSQLLAKRLLDLSNEGFTNWEFMTVHCWGEKAEGQWTLEIQDLPSQVRNPEKQGKLKEWSLILYGTAEHPYHTFSAHQSRSRMLELSAPELEPPKAALSPSQVEVPEDEEDYTAQSTPGSANILQTSVCHPECGDKGCDGPNADQCLNCVHFSLGSVKTSRKCVSVCPLGYFGDTAARRCRRCHKGCETCSSRAATQCLSCRRGFYHHQEMNTCVTLCPAGFYADESQKNCLKCHPSCKKCVDEPEKCTVCKEGFSLARGSCIPDCEPGTYFDSELIRCGECHHTCGTCVGPGREECIHCAKNFHFHDWKCVPACGEGFYPEEMPGLPHKVCRRCDENCLSCAGSSRNCSRCKTGFTQLGTSCITNHTCSNADETFCEMVKSNRLCERKLFIQFCCRTCLLAG
For the protein B1, the Km result in series [1] is “The Kms of PC1, PC2, furin, and PACE4 were determined as 11, 42, 8, and 15 µM, respectively”.

B2: proprotein convertase PC2 (enzyme, UniProt P16519 110-638, looked up, species assumed)
Neuroendocrine convertase 2: GYRDINEIDINMNDPLFTKQWYLINTGQADGTPGLDLNVAEAWELGYTGKGVTIGIMDDGIDYLHPDLASNYNAEASYDFSSNDPYPYPRYTDDWFNSHGTRCAGEVSAAANNNICGVGVAYNSKVAGIRMLDQPFMTDIIEASSISHMPQLIDIYSASWGPTDNGKTVDGPRELTLQAMADGVNKGRGGKGSIYVWASGDGGSYDDCNCDGYASSMWTISINSAINDGRTALYDESCSSTLASTFSNGRKRNPEAGVATTDLYGNCTLRHSGTSAAAPEAAGVFALALEANLGLTWRDMQHLTVLTSKRNQLHDEVHQWRRNGVGLEFNHLFGYGVLDAGAMVKMAKDWKTVPERFHCVGGSVQDPEKIPSTGKLVLTLTTDACEGKENFVRYLEHVQAVITVNATRRGDLNINMTSPMGTKSILLSRRPRDDDSKVGFDKWPFMTTHTWGEDARGTWTLELGFVGSAPQKGVLKEWTLMLHGTQSAPYIDQVVRDYQSKLAMSKKEELEEELDEAVERSLKSILNKN
Consider B2, for which the Km result in series [1] was “The Kms of PC1, PC2, furin, and PACE4 were determined as 11, 42, 8, and 15 µM, respectively”. The “cleavage of the peptide by PC2 (HPLC)” value in the series on Nona-L-arginine [2] is recorded as “essentially no cleavage was observed after 24 h of incubation (results not shown)”.

B3: recombinant truncated mouse furin (protein)
chain: DVYQEPTDPKFPQQWYLSGVTQRDLNVKEAWAQGFTGHGIVVSILDDGIEKNHPDLAGNYDPGASFDVNDQDPDPQPRYTQMNDNRHGTRCAGEVAAVANNGVCGVGVAYNARIGGVRMLDGEVTDAVEARSLGLNPNHIHIYSASWGPEDDGKTVDGPARLAEEAFFRGVSQGRGGLGSIFVWASGNGGREHDSCNCDGYTNSIYTLSISSATQFGNVPWYSEACSSTLATTYSSGNQNEKQIVTTDLRQKCTESHTGTSASAPLAAGIIALTLEANKNLTWRDMQHLVVQTSKPAHLNADDWATNGVGRKVSHSYGYGLLDAGAMVALAQNWTTVAPQRKCIVEILVEPKDIGKRLEVRKAVTACLGEPNHITRLEHVQARLTLSYNRRGDLAIHLISPMGTRSTLLAARPHDYSADGFNDWAFMTTHSWDEDPAGEWVLEIENTSEANNYGTLTKFTLVLYGTAPEGLSTPPESSGCKTLTSSQACVVCEEGYSLHQKSCVQHCPPGFIPQVLDTHYSTENDVEIIRASVCTPCHASCATCQGPAPTDCLSCPSHASLDPVEQTCSRQSQSSRESRPQQQPPALRPEVEMEPRLQAGLASHLPE
Consider B3, for which the “cleavage of the peptide by furin (HPLC)” value with Hexa-D-arginine is “essentially no cleavage was observed after 24 h of incubation (results not shown)”; in the series with Nona-L-arginine [3], “Cleavage of nona-L-arginine (SEQ ID NO 13) was first observed ˜40 min after reaction with furin had commenced, with the appearance of hexa- and hepta-L-arginine”; in the series with Hexa-L-arginine, “essentially no cleavage was seen after six hours incubation with furin (results not shown). After 24 hours, partial digestion of hexa-L-arginine (SEQ ID NO 14) had occurred, producing some penta-L-arginine”. Besides, in series [4], the Km entry was “The Kms of PC1, PC2, furin, and PACE4 were determined as 11, 42, 8, and 15 µM, respectively”.

B4: proprotein convertase PC1 (enzyme, UniProt P29120 111-753, looked up, species assumed)
Neuroendocrine convertase 1: SALRDSALNLFNDPMWNQQWYLQDTRMTAALPKLDLHVIPVWQKGITGKGVVITVLDDGLEWNHTDIYANYDPEASYDFNDNDHDPFPRYDPTNENKHGTRCAGEIAMQANNHKCGVGVAYNSKVGGIRMLDGIVTDAIEASSIGFNPGHVDIYSASWGPNDDGKTVEGPGRLAQKAFEYGVKQGRQGKGSIFVWASGNGGRQGDNCDCDGYTDSIYTISISSASQQGLSPWYAEKCSSTLATSYSSGDYTDQRITSADLHNDCTETHTGTSASAPLAAGIFALALEANPNLTWRDMQHLVVWTSEYDPLANNPGWKKNGAGLMVNSRFGFGLLNAKALVDLADPRTWRSVPEKKECVVKDNDFEPRALKANGEVIIEIPTRACEGQENAIKSLEHVQFEATIEYSRRGDLHVTLTSAAGTSTVLLAERERDTSPNGFKNWDFMSVHTWGENPIGTWTLRITDMSGRIQNEGRIVNWKLILHGTSSQPEHMKQPRVYTSYNTVQNDRRGVEKMVDPGEEQPTQENPKENTLVSKSPSSSSVGGRRDELEEGAPSQAMLRLLQSAFSKNSPPKQSPKKSPSAKLNIPYENFYEALEKLNKPSQLKDSEDSLYNDYVDVFYNTKPYKHRDDRLLQALVDILNEEN
Take B4: the Km result in series [1] is “The Kms of PC1, PC2, furin, and PACE4 were determined as 11, 42, 8, and 15 µM, respectively”.

These data come from US20030087827.
